Literature values in paper PMC10179296.
pKd: −log10 of the molar value.

Target: CCL2 (Homo sapiens) (UniProt P13500)
Experiment: isothermal fluorescence titration

CCL2 (Homo sapiens), sequence (P13500 24-99): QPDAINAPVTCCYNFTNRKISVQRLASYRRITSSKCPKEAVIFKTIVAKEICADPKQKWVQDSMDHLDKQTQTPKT
Tenascin-C, sequence (P24821 23-2201): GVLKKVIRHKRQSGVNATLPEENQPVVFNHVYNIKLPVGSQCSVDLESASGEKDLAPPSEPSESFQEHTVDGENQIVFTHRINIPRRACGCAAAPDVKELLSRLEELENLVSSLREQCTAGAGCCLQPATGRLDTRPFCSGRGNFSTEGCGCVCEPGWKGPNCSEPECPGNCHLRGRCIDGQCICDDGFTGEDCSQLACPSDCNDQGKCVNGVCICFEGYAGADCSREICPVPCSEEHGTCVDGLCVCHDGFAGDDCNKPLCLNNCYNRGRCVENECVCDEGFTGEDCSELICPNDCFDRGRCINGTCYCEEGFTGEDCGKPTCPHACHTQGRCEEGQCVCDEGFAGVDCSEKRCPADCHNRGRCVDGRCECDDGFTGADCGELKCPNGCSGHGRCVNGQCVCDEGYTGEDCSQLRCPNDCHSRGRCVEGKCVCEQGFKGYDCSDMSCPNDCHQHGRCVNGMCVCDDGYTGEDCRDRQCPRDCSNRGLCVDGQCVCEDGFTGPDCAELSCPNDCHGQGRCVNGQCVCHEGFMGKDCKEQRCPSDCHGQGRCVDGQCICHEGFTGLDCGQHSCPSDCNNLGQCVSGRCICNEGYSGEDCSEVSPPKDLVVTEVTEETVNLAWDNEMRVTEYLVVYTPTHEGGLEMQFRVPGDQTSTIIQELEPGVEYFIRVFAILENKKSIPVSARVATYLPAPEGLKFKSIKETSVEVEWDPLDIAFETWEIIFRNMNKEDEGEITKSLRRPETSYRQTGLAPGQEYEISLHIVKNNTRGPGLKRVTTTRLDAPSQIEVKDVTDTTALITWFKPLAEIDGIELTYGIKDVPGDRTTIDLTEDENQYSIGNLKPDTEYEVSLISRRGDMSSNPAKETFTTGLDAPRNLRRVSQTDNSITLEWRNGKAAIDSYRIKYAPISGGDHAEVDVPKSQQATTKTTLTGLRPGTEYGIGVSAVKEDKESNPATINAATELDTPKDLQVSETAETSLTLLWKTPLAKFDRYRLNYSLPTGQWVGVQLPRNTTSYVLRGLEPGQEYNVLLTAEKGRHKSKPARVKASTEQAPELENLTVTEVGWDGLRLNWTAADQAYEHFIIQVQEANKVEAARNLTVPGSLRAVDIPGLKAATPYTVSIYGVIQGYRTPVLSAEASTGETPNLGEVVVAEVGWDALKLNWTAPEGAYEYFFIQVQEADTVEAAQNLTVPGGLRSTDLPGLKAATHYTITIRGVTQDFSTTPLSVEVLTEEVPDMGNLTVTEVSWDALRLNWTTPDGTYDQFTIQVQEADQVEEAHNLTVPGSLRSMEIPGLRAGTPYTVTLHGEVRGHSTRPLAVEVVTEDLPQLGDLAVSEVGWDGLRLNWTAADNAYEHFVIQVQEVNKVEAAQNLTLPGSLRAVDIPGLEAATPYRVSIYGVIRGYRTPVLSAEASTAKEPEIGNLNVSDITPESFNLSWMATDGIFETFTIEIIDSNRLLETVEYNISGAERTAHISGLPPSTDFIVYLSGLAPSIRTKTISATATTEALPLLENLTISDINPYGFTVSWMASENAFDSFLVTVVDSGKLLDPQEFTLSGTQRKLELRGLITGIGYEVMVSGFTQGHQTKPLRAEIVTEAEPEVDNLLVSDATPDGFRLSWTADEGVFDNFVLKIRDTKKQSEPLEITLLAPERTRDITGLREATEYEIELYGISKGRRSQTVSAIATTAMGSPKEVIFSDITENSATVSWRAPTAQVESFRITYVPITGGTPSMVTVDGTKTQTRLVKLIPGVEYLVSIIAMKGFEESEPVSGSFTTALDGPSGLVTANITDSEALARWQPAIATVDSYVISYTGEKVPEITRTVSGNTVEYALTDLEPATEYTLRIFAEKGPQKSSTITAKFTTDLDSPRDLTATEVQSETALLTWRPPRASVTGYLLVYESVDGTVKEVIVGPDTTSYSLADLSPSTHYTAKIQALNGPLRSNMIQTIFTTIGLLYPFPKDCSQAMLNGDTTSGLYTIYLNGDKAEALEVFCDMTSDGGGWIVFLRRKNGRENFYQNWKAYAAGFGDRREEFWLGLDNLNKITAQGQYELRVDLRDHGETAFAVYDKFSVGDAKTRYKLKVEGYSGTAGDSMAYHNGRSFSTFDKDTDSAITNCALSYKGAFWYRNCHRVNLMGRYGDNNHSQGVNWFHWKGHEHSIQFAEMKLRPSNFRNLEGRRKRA

pKd: 5.63
Substance: Tenascin-C (from UniProt P24821)
